These results are taken from patent publication US20230018888A1.

The target of the assay is Adhesion G Protein-coupled Receptor E2 (ADGRE2), overexpressed on murine lymphoma EL4 cells (human) (UniProt Q9UHX3). The assay is described as follows: flow cytometry, scFv titrated on EL4 cells overexpressing ADGRE2.

The term EC50 denotes the concentration that produces a half-maximal response. A higher EC50 goes with weaker potency.

UniProt Q9UHX3, sequence (Q9UHX3 24-823): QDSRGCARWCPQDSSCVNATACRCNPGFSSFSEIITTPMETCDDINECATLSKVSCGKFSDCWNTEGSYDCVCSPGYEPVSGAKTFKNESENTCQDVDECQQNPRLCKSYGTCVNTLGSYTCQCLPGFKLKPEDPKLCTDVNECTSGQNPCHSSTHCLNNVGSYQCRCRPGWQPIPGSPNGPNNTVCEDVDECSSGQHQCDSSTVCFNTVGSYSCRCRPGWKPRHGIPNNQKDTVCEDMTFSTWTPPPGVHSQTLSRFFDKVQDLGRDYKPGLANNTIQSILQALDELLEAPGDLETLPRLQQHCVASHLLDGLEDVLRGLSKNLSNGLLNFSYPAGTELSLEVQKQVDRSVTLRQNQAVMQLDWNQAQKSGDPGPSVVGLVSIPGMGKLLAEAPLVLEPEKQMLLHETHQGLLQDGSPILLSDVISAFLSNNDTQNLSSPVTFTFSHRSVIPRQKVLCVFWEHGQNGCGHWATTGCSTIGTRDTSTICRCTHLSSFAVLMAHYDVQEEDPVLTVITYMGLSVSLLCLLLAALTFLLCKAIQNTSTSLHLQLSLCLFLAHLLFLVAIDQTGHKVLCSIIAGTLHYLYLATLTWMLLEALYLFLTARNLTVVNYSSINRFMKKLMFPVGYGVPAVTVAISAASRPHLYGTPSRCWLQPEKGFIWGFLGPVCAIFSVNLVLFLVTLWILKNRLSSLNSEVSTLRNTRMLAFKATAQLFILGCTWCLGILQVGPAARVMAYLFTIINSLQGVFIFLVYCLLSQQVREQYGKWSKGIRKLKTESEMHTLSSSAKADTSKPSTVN

B1: anti-ADGRE2 scFv E (scFv, part only; not given: VH-VL linker, V domains shown, not shown: another chain or arm of the molecule; small tags and cut ends)
VH: QVQLQQSGAEVKKPGASVKVSCKASGYTFTNYWMQWVRQAPGQGLEWIGAVYPGDGDTRHTQKFKGRVTMTADKSTSTVYMELSSLRSEDTAVYYCARGFTAYGMDYWGQGTLVTVSS
VL: QIVLTQSPATLSLSPGERATLTCSASSSVSYMHWYQQKPGLSPKRWIYDTSKLASGVPDRFSGSGSGTDYTFTIRRLEPEDFATYYCQQWSSNPLTFGQGTKVEIK
In turn, B1 showed an EC50 of 10.6 nM.

B2: anti-ADGRE2 scFv M (scFv, part only; not given: VH-VL linker, V domains shown, not shown: another chain or arm of the molecule; small tags and cut ends)
VH: QVQLQQSGAEVKKPGASVKLSCKASGYTFTNYWMQWIRQAPGQGLEWIGAVYPGDGDTRYTQKFQGRATLTADTSTSTAYMEVSSLRSEDTAVYYCARGFTAYGMDYWGQGTTVTVSS
VL: EIVLTQSPATLSASPGERVTMSCSASSSVSYMHWYQQKPGLAPRRWIYDTSKLASGVPDRFSGSGSGTDYTFTISRMEPEDFATYYCQQWSSNPLTFGGGTKLEIK
B2 had an EC50 of 16.4 nM.
